test system: Escherichia coli TOP10; assay: shrunken log2 fold change of peptide-encoding DNA abundance (4.5 h post-induction vs induction); higher = less antimicrobial activity (less host growth inhibition); conditions: time post-induction: 4.5 h; library: site-saturation at positions 5, 18, 19, 20
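Also: peptides expressed intracellularly from a pBAD plasmid library in pooled LB shake-flask culture, induced with 0.3% L-arabinose, DNA abundance read by NGS, three biological replicates, DESeq2 with apeglm shrinkage.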

Sequence	shrunken log2 fold change
RRIRWRPPRLPRPRPRPKTRPRP	0.654
RRIRMRPPRLPRPRPRPRNLPRP	0.0196
RRIRCRPPRLPRPRPRPRINPRP	-0.0891
RRIRLRPPRLPRPRPRPSREPRP	-0.104
RRIRHRPPRLPRPRPRPWCDPRP	-0.559
RRIRLRPPRLPRPRPRPEPDPRP	0.342
RRIRSRPPRLPRPRPRPYCVPRP	-0.912
RRIRVRPPRLPRPRPRPICRPRP	0.177
RRIRYRPPRLPRPRPRPALVPRP	0.112
RRIRMRPPRLPRPRPRPCILPRP	0.053
RRIRIRPPRLPRPRPRPIPFPRP	-1.35
RRIRIRPPRLPRPRPRPTGQPRP	0.0119
RRIRYRPPRLPRPRPRPPDQPRP	-0.145
RRIRHRPPRLPRPRPRPNPHPRP	-0.35
RRIRIRPPRLPRPRPRPLFMPRP	-0.756
RRIRLRPPRLPRPRPRPAKNPRP	0.00752
RRIRERPPRLPRPRPRPSEEPRP	-0.0988
RRIRSRPPRLPRPRPRPCGHPRP	0.0213
RRIRFRPPRLPRPRPRPTSTPRP	-0.0598
RRIRPRPPRLPRPRPRPLGSPRP	-0.0459
RRIRIRPPRLPRPRPRPHYGPRP	-0.223
RRIRFRPPRLPRPRPRPVWRPRP	0.441
RRIRYRPPRLPRPRPRPTMLPRP	-0.54
RRIRIRPPRLPRPRPRPHESPRP	0.0539
RRIRLRPPRLPRPRPRPASPPRP	0.0633

Sequence	shrunken log2 fold change
RRIRIRPPRLPRPRPRPGMFPRP	-0.284
RRIRERPPRLPRPRPRPDKLPRP	-1.81
RRIRCRPPRLPRPRPRPNDSPRP	-0.221
RRIRPRPPRLPRPRPRPMCIPRP	-0.0687
RRIRDRPPRLPRPRPRPWQNPRP	-0.0811
RRIRMRPPRLPRPRPRPNPIPRP	0.188
RRIRPRPPRLPRPRPRPKLQPRP	-0.00543
RRIRDRPPRLPRPRPRPEENPRP	1.11
RRIRGRPPRLPRPRPRPKPHPRP	0.854
RRIRSRPPRLPRPRPRPGWYPRP	-0.118
RRIRFRPPRLPRPRPRPFMCPRP	-0.98
RRIRERPPRLPRPRPRPCFAPRP	0.0529
RRIRLRPPRLPRPRPRPSTCPRP	-0.179
RRIRNRPPRLPRPRPRPNLKPRP	-0.33
RRIRVRPPRLPRPRPRPEFAPRP	0.169
RRIRGRPPRLPRPRPRPVNEPRP	0.517
RRIRQRPPRLPRPRPRPKLYPRP	-0.0149
RRIRHRPPRLPRPRPRPPPHPRP	0.703
RRIRLRPPRLPRPRPRPGQIPRP	0.207
RRIRMRPPRLPRPRPRPTCLPRP	0.413
RRIRHRPPRLPRPRPRPMRHPRP	-0.0546
RRIRSRPPRLPRPRPRPYVWPRP	-0.332
RRIRSRPPRLPRPRPRPNVEPRP	0.814
RRIRFRPPRLPRPRPRPARGPRP	0.624
RRIRRRPPRLPRPRPRPIFWPRP	0.821

Sequence	shrunken log2 fold change
RRIRHRPPRLPRPRPRPCPYPRP	-0.546
RRIRHRPPRLPRPRPRPITKPRP	-0.107
RRIRARPPRLPRPRPRPCFKPRP	0.0174
RRIRDRPPRLPRPRPRPWRQPRP	-0.114
RRIRHRPPRLPRPRPRPKGYPRP	-0.0529
RRIRVRPPRLPRPRPRPLCQPRP	0.258
RRIRGRPPRLPRPRPRPWRTPRP	-0.0149
RRIRTRPPRLPRPRPRPGKSPRP	-0.402
RRIRPRPPRLPRPRPRPDLCPRP	-0.0739
RRIRNRPPRLPRPRPRPHQTPRP	-0.0525
RRIRARPPRLPRPRPRPWVLPRP	-0.0908
RRIRGRPPRLPRPRPRPTHLPRP	0.359
RRIRCRPPRLPRPRPRPTCHPRP	0.0303
RRIRKRPPRLPRPRPRPDPWPRP	0.422
RRIRWRPPRLPRPRPRPKVWPRP	0.68
RRIRMRPPRLPRPRPRPAAGPRP	1.56
RRIRYRPPRLPRPRPRPWRYPRP	0.026
RRIRHRPPRLPRPRPRPWMNPRP	-0.0538
RRIRCRPPRLPRPRPRPKWQPRP	0.0444
RRIRRRPPRLPRPRPRPKNYPRP	-0.177
RRIRYRPPRLPRPRPRPHVHPRP	-0.00398
RRIRKRPPRLPRPRPRPHCAPRP	-0.00229
RRIRRRPPRLPRPRPRPQYQPRP	-0.207
RRIRDRPPRLPRPRPRPNRDPRP	-0.0372
RRIRYRPPRLPRPRPRPIAHPRP	-0.901

Sequence	shrunken log2 fold change
RRIRTRPPRLPRPRPRPLKCPRP	-0.249
RRIRPRPPRLPRPRPRPHMTPRP	-0.47
RRIRHRPPRLPRPRPRPHWEPRP	-0.211
RRIRWRPPRLPRPRPRPQADPRP	-0.104
RRIRRRPPRLPRPRPRPYGEPRP	-0.0212
RRIRWRPPRLPRPRPRPPNNPRP	-0.0673
RRIRDRPPRLPRPRPRPLWFPRP	-0.0862
RRIRPRPPRLPRPRPRPPTPPRP	0.417
RRIRDRPPRLPRPRPRPIFQPRP	0.242
RRIRPRPPRLPRPRPRPQGDPRP	0.243
RRIRMRPPRLPRPRPRPPEQPRP	0.956
RRIRLRPPRLPRPRPRPLFRPRP	-0.388
RRIRVRPPRLPRPRPRPYLRPRP	-0.165
RRIRFRPPRLPRPRPRPQIYPRP	-1.01
RRIRKRPPRLPRPRPRPNVGPRP	-0.0151
RRIRCRPPRLPRPRPRPRGGPRP	0.508
RRIRSRPPRLPRPRPRPIQAPRP	-0.0793
RRIRNRPPRLPRPRPRPAAQPRP	0.401
RRIRYRPPRLPRPRPRPPIGPRP	-0.0423
RRIRWRPPRLPRPRPRPENRPRP	-0.0139
RRIRNRPPRLPRPRPRPCRKPRP	-0.0373
RRIRIRPPRLPRPRPRPFREPRP	-0.0279
RRIRGRPPRLPRPRPRPLFNPRP	0.117
RRIRTRPPRLPRPRPRPAMEPRP	-0.0176
RRIRWRPPRLPRPRPRPQLEPRP	0.0296

Sequence	shrunken log2 fold change
RRIRYRPPRLPRPRPRPGFDPRP	-0.205
RRIRMRPPRLPRPRPRPYQMPRP	0.119
RRIRPRPPRLPRPRPRPAWPPRP	0.6
RRIRPRPPRLPRPRPRPGAFPRP	0.293
RRIRVRPPRLPRPRPRPQTQPRP	0.104
RRIRKRPPRLPRPRPRPTIRPRP	-0.241
RRIRWRPPRLPRPRPRPFTKPRP	-0.151
RRIRWRPPRLPRPRPRPLKEPRP	-0.0713
RRIRIRPPRLPRPRPRPEGSPRP	0.0664
RRIRGRPPRLPRPRPRPPDTPRP	1
RRIRSRPPRLPRPRPRPDKRPRP	-0.198
RRIRQRPPRLPRPRPRPPWVPRP	0.696
RRIRRRPPRLPRPRPRPEEWPRP	-0.00804
RRIRRRPPRLPRPRPRPRRVPRP	0.347
RRIRHRPPRLPRPRPRPWRMPRP	0.0309
RRIRCRPPRLPRPRPRPFREPRP	-0.386
RRIRVRPPRLPRPRPRPYMRPRP	0.162
RRIRLRPPRLPRPRPRPIHQPRP	0.0518
RRIRYRPPRLPRPRPRPCMNPRP	-0.0223
RRIRPRPPRLPRPRPRPLRCPRP	0.394
RRIRYRPPRLPRPRPRPKCHPRP	-0.139
RRIRARPPRLPRPRPRPVGMPRP	0.376
RRIRERPPRLPRPRPRPKQDPRP	-0.252
RRIRVRPPRLPRPRPRPGENPRP	-0.0226
RRIRMRPPRLPRPRPRPCKGPRP	-0.0617

Sequence	shrunken log2 fold change
RRIRCRPPRLPRPRPRPQIYPRP	-0.579
RRIRCRPPRLPRPRPRPHWYPRP	-0.714
RRIRMRPPRLPRPRPRPGKKPRP	0.532
RRIRHRPPRLPRPRPRPKTVPRP	-0.154
RRIRIRPPRLPRPRPRPWSDPRP	-0.0344
RRIRDRPPRLPRPRPRPVDIPRP	-0.0995
RRIRNRPPRLPRPRPRPRMEPRP	-0.0307
RRIRPRPPRLPRPRPRPKVQPRP	0.327
RRIRHRPPRLPRPRPRPEWLPRP	0.274
RRIRSRPPRLPRPRPRPMPYPRP	-0.278
RRIRERPPRLPRPRPRPTFRPRP	-0.00937
RRIRQRPPRLPRPRPRPTHMPRP	0.0516
RRIRVRPPRLPRPRPRPNWRPRP	0.4
RRIRCRPPRLPRPRPRPLFPPRP	-0.2
RRIRGRPPRLPRPRPRPFKHPRP	-0.527
RRIRTRPPRLPRPRPRPQPAPRP	0.0787
RRIRLRPPRLPRPRPRPDKPPRP	-0.228
RRIRERPPRLPRPRPRPFFCPRP	-0.0755
RRIRLRPPRLPRPRPRPLGDPRP	0.015
RRIRIRPPRLPRPRPRPQQRPRP	-0.104
RRIRIRPPRLPRPRPRPPQVPRP	0.328
RRIRTRPPRLPRPRPRPEDNPRP	0.168
RRIRFRPPRLPRPRPRPTTLPRP	-0.0787
RRIRGRPPRLPRPRPRPITCPRP	-0.00623
RRIRDRPPRLPRPRPRPGYFPRP	-1.25

Reference: the supplement of paper PMC9112550, “Optimization of the antimicrobial peptide Bac7 by deep mutational scanning” (BMC Biology, 2022)
